Measured values from the Human Domainome abundance scans (Beltran et al. 2025).
± gives the uncertainty stated by the source.

B1: COUP transcription factor 1, residues 83 to 159; numbered along this chain, P10589 (parent)
chain: HIECVVCGDKSSGKHYGQFTCEGCKSFFKRSVRRNLTYTCRANRNCPIDQHHRNQCQYCRLKKCLKVGMRREAVQRG

Variants of: B1
Test: abundance fitness (aPCA) (normalised: wild type 0, dead -1); higher = more abundant; growth selection in yeast, the domain comes from the species named
Details: Homo sapiens

Row | Variant | abundance fitness
1 | HIECVVCGDKSSGKHYGQFTCEGCKSFFKRSVRRNLTYTCRANRNCPIDQHHRNQCQRCRLKKCLKVGMRREAVQRG [Y58R] | -0.458 ± 0.043
2 | HIECVVCGDKSSGKHYGQFTCEGCKSFFKRSVRRNLTYTCRANRNCPIDQHHRNQCQYCRLSKCLKVGMRREAVQRG [K62S] | 0.011 ± 0.041
3 | HIECVVCGDKSSGKHYGQFTCEGCKSFFKRSVRRNLTYTCRVNRNCPIDQHHRNQCQYCRLKKCLKVGMRREAVQRG [A42V] | 0.09 ± 0.062
4 | HIECVVCGDKSSGKHYGQFTCEGCKSFFKRSVRRNLTYTCRTNRNCPIDQHHRNQCQYCRLKKCLKVGMRREAVQRG [A42T] | -0.256 ± 0.15
5 | HIECVVCGDKSSGKHYGQFTCEGCKSFFKRSVRRNLTYTCRLNRNCPIDQHHRNQCQYCRLKKCLKVGMRREAVQRG [A42L] | 0 ± 0.067
6 | HIECVVCGDKSSGKHYGQFTCEGCKSFFKRSVRRNLTYTCRENRNCPIDQHHRNQCQYCRLKKCLKVGMRREAVQRG [A42E] | 0.084 ± 0.078
7 | HIECVVCGDKSSGKHYGQFTCEGCKSFFKRSVRRNLTYTCRANRNCPIDQHHRNQCQYCRLKKCLKVGMRREAWQRG [V74W] | -0.3 ± 0.057
8 | HIECVVCGDKSSGKHYGQFTCEGCKSFFKRSVRRNLTYTCRANRNCPIDQHHRNQCQYCRLKKCLKVGMRREALQRG [V74L] | -0.224 ± 0.04
9 | HIECVVCGDKSSGKHYGQFTCEGCKSFFKRSVRRNLTYTCRANRNCPIDQHHRNQCQYCRLKKCLKRGMRREAVQRG [V67R] | -0.16 ± 0.037
10 | HIECVVCGDKSSGKHYGQFTCEGCKSFFKRSVRRNLTYTCRANRNCPIDQHHRNQCQYCRLKKCLKKGMRREAVQRG [V67K] | -0.127 ± 0.046
11 | HIECVVCGKKSSGKHYGQFTCEGCKSFFKRSVRRNLTYTCRANRNCPIDQHHRNQCQYCRLKKCLKVGMRREAVQRG [D9K] | -0.083 ± 0.16
12 | HIECVVCGAKSSGKHYGQFTCEGCKSFFKRSVRRNLTYTCRANRNCPIDQHHRNQCQYCRLKKCLKVGMRREAVQRG [D9A] | -0.128 ± 0.066
13 | HIECVVCGDKSSGKHYGQFTCEGCKSFFKRSVRRNLTYTCRANRNCPIDQHHRNQCQYCRLKKCLKVGMYREAVQRG [R70Y] | -0.323 ± 0.12
14 | HIECVVCGDKSSGKHYGQFTCEGCKSFAKRSVRRNLTYTCRANRNCPIDQHHRNQCQYCRLKKCLKVGMRREAVQRG [F28A] | -0.809 ± 0.11
15 | HIECVVCGDKSSGKHYGQFTCEGCKSFFKNSVRRNLTYTCRANRNCPIDQHHRNQCQYCRLKKCLKVGMRREAVQRG [R30N] | -0.028 ± 0.22
16 | HIECVVCGDKSSGKHYGQFTCEGCKSFFKRSVARNLTYTCRANRNCPIDQHHRNQCQYCRLKKCLKVGMRREAVQRG [R33A] | 0.142 ± 0.042
17 | HIECVVCGDKSSGKHYGQFTCEGCKSFFKRSVRRNLTYTCRANRNCPIDQHHRNQCQYCRLKKCLKVGMRREAVQMG [R76M] | -0.047 ± 0.058
18 | HIECVVCGDKSSGKHYGQFTCEGCKSFFKRSVRRNLTYTCRANRNCPIDQHHRNQCQYCRLKKCLKVGMRREAVQAG [R76A] | -0.13 ± 0.045

Row | Variant | abundance fitness
19 | HIECVVCGDKSSGKHYGQFTCEGCKSFFKRSVRRNLTYTCRANRNCPIDQHHRNQCQYCRLKKCLKVGMRREAVQHG [R76H] | 0.094 ± 0.083
20 | HIECVVCGDKSSGKHYGQFTCEGCKSFFKRSVRRNLTYTCRANRNCPIDQHHRNQCQYCRLKKCLKVGMRREAVQDG [R76D] | 0.221 ± 0.066
21 | HIECVVCGDKSSGKHYGQFTCEGCKSFFKRSVRRNLTYTCRANRNCPIDQHHANQCQYCRLKKCLKVGMRREAVQRG [R53A] | 0.022 ± 0.059
22 | HIECVVCGDKSSGKHYGQFTCEGCKSFFKRSVRRNLTYTCRANRNCPIDQHHQNQCQYCRLKKCLKVGMRREAVQRG [R53Q] | 0.12 ± 0.21
23 | HIECVVCGDKSSWKHYGQFTCEGCKSFFKRSVRRNLTYTCRANRNCPIDQHHRNQCQYCRLKKCLKVGMRREAVQRG [G13W] | -1.04 ± 0.19
24 | HIECVVCGDKSSGKHYGQGTCEGCKSFFKRSVRRNLTYTCRANRNCPIDQHHRNQCQYCRLKKCLKVGMRREAVQRG [F19G] | -0.53 ± 0.071
25 | HIECVVCGDKSSGKHYGQFTCEGCKSFFKRSVRRNLTYTCWANRNCPIDQHHRNQCQYCRLKKCLKVGMRREAVQRG [R41W] | 0.145 ± 0.052
26 | HIECVVCGDKSSGKHYGQFTCEGCKSFFKRSVRRNLTYTCEANRNCPIDQHHRNQCQYCRLKKCLKVGMRREAVQRG [R41E] | 0.107 ± 0.064
27 | HIECVVCGDKSSGKHYGQFTCEGCKSFFKRSVRRNLTYTCRANRNCPMDQHHRNQCQYCRLKKCLKVGMRREAVQRG [I48M] | -0.13 ± 0.063
28 | HIECVVCGDKSSGKHYIQFTCEGCKSFFKRSVRRNLTYTCRANRNCPIDQHHRNQCQYCRLKKCLKVGMRREAVQRG [G17I] | -0.515 ± 0.28
29 | HIECVVCGDKSSGKHYPQFTCEGCKSFFKRSVRRNLTYTCRANRNCPIDQHHRNQCQYCRLKKCLKVGMRREAVQRG [G17P] | -0.572 ± 0.17
30 | HIECVVCGDKSSGKHYGQFTCEGCKSFFKRSVRRNLTYTCRANRNCPIDQHHRNQCQYCVLKKCLKVGMRREAVQRG [R60V] | -0.157 ± 0.037
31 | HIECVVCGDKSSGKHYGQFTCEGCKSFFKRSVRRNLTYTCRANRNCPIDQHHRNQCNYCRLKKCLKVGMRREAVQRG [Q57N] | 0.163 ± 0.12
32 | HIECVVCGDKSSGKHYGQFTCEGCKSFFKRSVRRNLTYTCRANRNCPIDQHHRNQCEYCRLKKCLKVGMRREAVQRG [Q57E] | 0.183 ± 0.06
33 | HIECVVCGDKSSGKHYGQFTCEGCKSFFKRSVRRNLTYTCRANRNCPIDQHHRNQCMYCRLKKCLKVGMRREAVQRG [Q57M] | -0.121 ± 0.15
34 | HIECVVCGDKSSGKHYGQFTCEGCKSFFKRSVRRNLTYTCRANRNCPIDQHHRNQCQYCRLKKCLKVAMRREAVQRG [G68A] | -0.729 ± 0.069
35 | HIECVVCGDKSSGKHYGQFTCEGCKSQFKRSVRRNLTYTCRANRNCPIDQHHRNQCQYCRLKKCLKVGMRREAVQRG [F27Q] | -0.739 ± 0.2
36 | HIECVVCGDKSSGKHYGQFTCEGCKSEFKRSVRRNLTYTCRANRNCPIDQHHRNQCQYCRLKKCLKVGMRREAVQRG [F27E] | -0.519 ± 0.15
